Source: publication PMC4809050 (2016)

What was measured:
Assay in all cases: NMR chemical shift titration
[1] = target: T1, CCR7 N-terminus peptide 2-30 (Homo sapiens, UniProt P32248)
T1 chain: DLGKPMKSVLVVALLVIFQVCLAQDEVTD

[2] = target: PSGL-1 N-terminus peptide 1-15 (Homo sapiens, UniProt Q14242, N-terminal pyroglutamate)
[3] = target: T2, PSGL-1 N-terminus peptide 2-15 (Homo sapiens, UniProt Q14242)
T2 chain: PLQLLLLLILLGPG

[4] = target: T3, CCR7 N-terminus peptide 1-30 (Homo sapiens, UniProt P32248)
T3 chain: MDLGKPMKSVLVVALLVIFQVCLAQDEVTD

B1: CCL19 (protein)
chain: GTNDAEDCCLSVTQKPIPGYIVRNFHYLLIKDGCRVPAVVFTTLRGRQLCAPPDQPWVERIIQRLQRTSAKMKRRSS
Kd [1]: 12 µM
Kd [2]: 20 µM
Kd [3]: 18 µM
Kd [4]: 52 µM
